Reference: patent US20070148130A1

How the values were obtained:
MPRN-12 = test system: T1, MPRN-12
T1 sequence: NVKGTEDSG

MPRN-20 = test system: T2, MPRN-20
T2 sequence: KGTEDSGTT

partially purified native TRRE (pooled Phenyl Sepharose fractions with the highest specific activity, from stimulated THP-1 cells)
TNF-R peptide cleavage activity (FRET assay) of Phenyl Sepharose elution fractions (MPRN-12): The leading edge of the protein peak was found to give the highest FRET signal (shown here for MPRN-12) | specific activity in the FRET peptide cleavage assay (MPRN-12): a specific activity of 378 FU/µg in the FRET assay using the MPRN-12 substrate | TNF-R peptide cleavage activity (FRET assay) of Phenyl Sepharose elution fractions (MPRN-20): Fractions 4-6 but not 7-10 also cleaved MPRN-20
